Publication PMC11240982 (2024)

B1: SHIV_(1157ipd3N4) V3 peptide (305KSISIGPGQAI317) (peptide)
peptide: KSISIGPGQAI

Columns and labels:
Test in all cases: BLI
J038 = molecular target: J038
447-52D = molecular target: 447-52D
[1] = molecular target: B1

Binder | Kd (J038) | Kd (447-52D) | Kd [1]
B1 | 1650 nM | 55.6 nM | –
JT18 (antibody, V domains shown) VH: EVQLVQSGAEVKRPGESLRISCKTSGYDFTDYWINWVRQMPGKGLEWVGMVYPSDSETAYSPSFRGRVTISADTSISTSYLQWTSLEASDTATYYCARPVSGTFALDVWGRGVLVAVSS VL: QSVLTQPPSMSGAPGQRVTMSCTGGNSNIGANLYVQWYQQVPGTAPRLLIYEDNQRPSGVSDRFSGSRSGSSASLTITGLQSEDEADYYCQSYDNSLSTVLFGGGTRLTVL | – | – | 55.3 nM
